Biological target: T1, recombinant human IgE, SE44 (human, UniProt P01854-1 1-428)
T1 construct: also called monoclonal human IgE (SE44); biotinylated SE44
Experiment: ELISA titration on plate-coated SE44 (human IgE); Fab detected with biotin-sheep anti-human Fd and Neutra-avidin-AP (Example 6)
Protocol: Coating solution was removed and the plates were blocked with 200 uL/well 3% BSA/PBS for 1 hour at 37° C.
The plates were washed 4× with PBS/0.1% TWEEN® (PBST). 50 uL/well Fab (from 15 mL periplasmic prep) was added starting with a dilution of 1:2 and diluting 3 fold serially in 0.5% BSA/PBS and 0.05% TWEEN®20. Plates were incubated for 2 hours at room temperature.

T1 sequence (P01854 other isoform, or with tags, fused parts or gaps): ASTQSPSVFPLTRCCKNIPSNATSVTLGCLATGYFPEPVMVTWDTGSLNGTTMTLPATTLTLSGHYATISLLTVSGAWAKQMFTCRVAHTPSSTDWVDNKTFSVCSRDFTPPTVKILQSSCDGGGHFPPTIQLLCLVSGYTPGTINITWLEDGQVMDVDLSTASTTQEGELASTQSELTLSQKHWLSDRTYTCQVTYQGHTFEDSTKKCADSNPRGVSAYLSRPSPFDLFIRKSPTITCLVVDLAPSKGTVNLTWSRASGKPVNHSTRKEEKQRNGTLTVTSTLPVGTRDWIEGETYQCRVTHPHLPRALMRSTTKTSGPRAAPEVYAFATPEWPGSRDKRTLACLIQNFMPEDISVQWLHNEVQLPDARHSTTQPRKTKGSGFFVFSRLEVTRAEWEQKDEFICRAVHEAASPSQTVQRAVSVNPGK

B1: humanized Fab clone 136 (Fab, V domains shown)
VH: QVQLVQSGAEVMKPGSSVKVSCKASGYTFSMYWLEWVRQAPGHGLEWMGEISPGTFTTNYNEKFKARVTFTADTSTSTAYMELSSLRSEDTAVYYCARFSHFSGSNYDYFDYWGQGTLVTVSS
VL: EIVMTQSPATLSVSPGERATLSCRASQSIGTNIHWYQQKPGQAPRLLIYYASESISGIPARFSGSGSGTEFTLTISSLQSEDFAVYYCQQSDSWPTTFGGGTKVEIK
notes: Retains 5 murine heavy chain framework residues; 100% human light chain framework; also called Clone ID #136; Humanized clone 136
  EC50 (read off the curve): ~0.03 µg/mL

— patent US20060251644A1 (TANOX, published 2006)
